Assay [1] concerns the target human β-actin, filamentous (human) (UniProt P60709).
Assay [2] deals with T1, acto-Myo1C^0-ΔTH1 (no Tpm) (Homo sapiens, UniProt O00159). The assay is classed as binding.
Assay [3] concerns the target chicken skeletal muscle α-actin, filamentous (chicken) (UniProt P68139). Briefly: stopped-flow kinetics.
Assay [4] addresses α-actin–Tpm1.7 cofilament (chicken | human) (UniProt P68139). Briefly: stopped-flow kinetics.
In assay [5] the target is α-actin–Tpm3.1 cofilament (chicken | human) (UniProt P68139). Briefly: stopped-flow kinetics.
In assay [6] the target is β-actin–AcTpm1.6 cofilament (human) (UniProt P60709).
In assay [7] the target is β-actin–AcTpm2.1 cofilament (human) (UniProt P60709).
For assay [8], the target named is β-actin–AcTpm3.1 cofilament (human) (UniProt P60709).
The target in assay [9] is β-actin–AcTpm4.2 cofilament (human) (UniProt P60709).
The target in assay [10] is β-actin–Tpm1.6 cofilament (human) (UniProt P60709).
For assay [11], the target named is β-actin–Tpm2.1 cofilament (human) (UniProt P60709).
For assay [12], the target named is β-actin–Tpm3.1 cofilament (human) (UniProt P60709).
For assay [13], the target named is β-actin–Tpm4.2 cofilament (human) (UniProt P60709).
Assay [14] has as its target T1, acto-Myo1C^0-ΔTH1 (no Tpm). Briefly: stopped-flow, pyrene-actin fluorescence, K0.[…] of fast phase vs [ATP]. It is filed as binding.

Where two headings read alike, the source gives them in different places.

T1 sequence (O00159 36-891, stated change not applied): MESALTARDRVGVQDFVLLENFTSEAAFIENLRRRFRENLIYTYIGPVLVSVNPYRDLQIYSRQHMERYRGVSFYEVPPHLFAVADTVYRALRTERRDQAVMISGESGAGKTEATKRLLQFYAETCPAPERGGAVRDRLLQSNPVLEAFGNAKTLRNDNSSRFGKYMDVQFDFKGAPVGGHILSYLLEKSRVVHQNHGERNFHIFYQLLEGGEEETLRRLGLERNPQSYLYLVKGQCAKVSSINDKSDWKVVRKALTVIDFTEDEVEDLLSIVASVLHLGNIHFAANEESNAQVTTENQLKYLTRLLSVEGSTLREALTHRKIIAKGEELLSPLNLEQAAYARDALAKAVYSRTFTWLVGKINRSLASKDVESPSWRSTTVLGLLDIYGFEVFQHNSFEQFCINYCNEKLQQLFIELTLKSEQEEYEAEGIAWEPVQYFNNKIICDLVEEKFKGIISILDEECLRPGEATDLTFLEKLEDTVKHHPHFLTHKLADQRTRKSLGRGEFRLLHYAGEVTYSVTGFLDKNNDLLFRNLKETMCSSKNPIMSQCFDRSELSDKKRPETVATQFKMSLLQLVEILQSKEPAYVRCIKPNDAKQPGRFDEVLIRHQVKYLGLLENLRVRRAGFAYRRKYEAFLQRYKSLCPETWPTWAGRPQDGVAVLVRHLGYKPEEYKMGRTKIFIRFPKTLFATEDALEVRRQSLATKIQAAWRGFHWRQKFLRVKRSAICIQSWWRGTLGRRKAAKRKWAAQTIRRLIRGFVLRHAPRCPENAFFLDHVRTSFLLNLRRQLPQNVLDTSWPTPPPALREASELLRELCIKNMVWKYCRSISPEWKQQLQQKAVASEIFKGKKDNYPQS

Take “human tropomyosin Tpm1.8, non-acetylated (natural protein)”: the Tdiss in assay [1] turned out to be 41.6 °C.

On to `Nc1ncnc2c1ncn2[C@@H]1O[C@H](COP(=O)(O)OP(=O)(O)O)[C@@H](O)[C@H]1O` [ADP], for which the Kd (as a rule, the concentration at which binding is half-saturated) in assay [2] came out at 460 ± 80 nM.

For “human Myo1C^0-ΔTH1, tail truncated myosin-1C isoform C^0, co-produced with calmodulin (from UniProt P0DP23 1-149) (complex)”, the Kd worked out at 13.7 nM in assay [3], 19.6 nM in [4] and 18.4 nM in assay [5]. Moreover, the kon (in general, the second-order rate constant of association) in assay [3] turned out to be 1.46e+06 M⁻¹ s⁻¹; in assay [4] it was 1.33e+06 M⁻¹ s⁻¹; in assay [5], 1.36e+06 M⁻¹ s⁻¹.

Take “human non-muscle myosin-2A heavy meromyosin (NM-2A-HMM) with essential and regulatory light chains, phosphorylated (from UniProt P35579-1;P60660-1;O14950) (complex)”: the Kapp of the actin-activated steady-state ATPase (Michaelis–Menten fit, 30 °C) was determined as 17.7 µM in [6]; 40.9 µM in [7]; 26.6 µM in assay [8]; 26.1 µM in assay [9]; 27.8 µM in assay [10]; 37.8 µM in [11]. The figures for the Kapp of the actin-activated steady-state ATPase (Michaelis–Menten fit, 30 °C) in assay [12] and in assay [13] were 19.6 µM and 26.2 µM, respectively. The kcat/Kapp of the actin-activated steady-state ATPase (30 °C) in [6] turned out to be 17400 M⁻¹ s⁻¹; in assay [9], 23400 M⁻¹ s⁻¹; in assay [10], 12400 M⁻¹ s⁻¹; in assay [11] it was 10200 M⁻¹ s⁻¹; in [12], 29100 M⁻¹ s⁻¹; in assay [13] it was 11200 M⁻¹ s⁻¹.

In assay [14], `Nc1ncnc2c1ncn2[C@@H]1O[C@H](COP(=O)(O)OP(=O)(O)OP(=O)(O)O)[C@@H](O)[C@H]1O` [ATP] registered a Kd of 154000 ± 31000 nM.

For the origin of these results see article PMC9204724 (iScience, 2022).
